This passage reports ratio to parent results from publication PMC8281565.

This experiment addresses histone H3 (UniProt P68431). The experiment can be described thus: co-immunoprecipitation (IP with SV40 antibody, WB, densitometry). The following applies: nuclear extracts from transfected HCT116 cells; three different experiments; parent: est. 1.0; read off a plot.

Regarding “SV40 Large T antigen wild type (from UniProt P03070) S106A; S111A; S112G”, the ratio to parent is 0.61.
